The values below come from patent US7906477.

This test addresses human glandular kallikrein 2 (hK2), enzymatically active (human), P20151. Briefly: cell-based or functional assay.

Square brackets hold non-standard residues; d marks the D form. Ends that are not written are not given here. Tyr(3-NO2) = N[C@@H](Cc1ccc(O)c([N+](=O)[O-])c1)C(=O)O; Abz = aminobenzoic acid; Dap = NC[C@H](N)C(=O)O

For the molecule [Tyr(3-NO2)]GKAFRL[Dap]FK(Abz)-{PEGA resin} [Y′GKAFRL-Dap-F-K′-PEGA (SEQ ID NO:53)], the time required to generate clearly detectable fluorescence on the beads fell in the range of 4 to 5 h.
